Source: patent publication US20110008369A1

Molecular target: human PD-1 (Programmed Cell Death 1), expressed on cells (human) (UniProt Q15116)
Experiment: cell binding; 0.2 ug/ml IgG on activated human CD4+ cells, 37 C

Chain of human PD-1 (Programmed Cell Death 1), expressed on cells (human) (Q15116 25-288 limits assumed): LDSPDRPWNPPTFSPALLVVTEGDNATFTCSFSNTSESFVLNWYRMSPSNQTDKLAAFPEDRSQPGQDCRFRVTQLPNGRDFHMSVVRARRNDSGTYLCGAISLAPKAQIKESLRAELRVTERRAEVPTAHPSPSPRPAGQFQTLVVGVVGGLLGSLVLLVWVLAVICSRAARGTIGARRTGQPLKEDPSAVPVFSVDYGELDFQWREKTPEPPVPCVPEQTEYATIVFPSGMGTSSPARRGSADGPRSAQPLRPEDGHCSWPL

B1: mAb 6D10 (antibody, part only; not given: light chain variable domain, V domains shown, part only)
VH: EVKLVESGGGLVQPGGSRKLSCAASGFTFSSFGMHWVRQAPEKGLEWVAYVSSASSVIHYADTVKGRFTISRDNPKNTLFLQMTSLRSEDTAMYYCARSGYYGTWFPYWGQGTLVTVS
MFI: 133 MFI
